Reference: the supplement of paper PMC10567573

B1: FBXO3 (parent)
chain: DEEERRRRVFDVPIRRRRCSRLF
B2: MFF (parent)
chain: MAEISRIQYEMEYTEGISQRMRVP

Variants of: B1
Experiment: protein stability index of a GFP-peptide fusion (GPS, HEK-293T) (PSI 1-6); higher = more stable
Conditions: c terminus: native
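Note: lentivirally expressed fusions sorted by FACS into six bins by GFP to DsRed ratio, PSI derived from sequencing read proportions per bin multiplied by bin number.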

| Variant | protein stability index |
| --- | --- |
| DEEERRRRVFDVPIRRRRCSRWF [L22W] | 3.03 |
| DEEERRRRVFDVPIRRRRCSRKF [L22K] | 4.67 |
| DEEERRRRVFDVPIRRRRCSRIF [L22I] | 2.82 |
| DEEERRRRVFDVPIRRRRCSRTF [L22T] | 2.46 |
| DEEERRRRVFDVPIRRRRCSRSF [L22S] | 2.17 |
| DEEERRRRVFDVPIRRRRCSRMF [L22M] | 2.28 |
| DEEERRRRVFDVPIRRRRCSRHF [L22H] | 2.94 |
| DEEERRRRVFDVPIRRRRCSRPF [L22P] | 3.85 |
| DEEERRRRVFDVPIRRRRCSRVF [L22V] | 2.12 |
| DEEERRRRVFDVPIRRRRCSRYF [L22Y] | 2.63 |
| DEEERRRRVFDVPIRRRRCSRQF [L22Q] | 1.55 |
| DEEERRRRVFDVPIRRRRCSRNF [L22N] | 2.09 |
| DEEERRRRVFDVPIRRRRCSRRF [L22R] | 3.97 |
| DEEERRRRVFDVPIRRRRCSRLL [F23L] | 4.08 |
| DEEERRRRVFDVPIRRRRCSRLA [F23A] | 1.35 |
| DEEERRRRVFDVPIRRRRCSRLM [F23M] | 2.45 |

| Variant | protein stability index |
| --- | --- |
| DEEERRRRVFDVPIRRRRCSRLR [F23R] | 3.91 |
| DEEERRRRVFDVPIRRRRCSRLG [F23G] | 2.86 |
| DEEERRRRVFDVPIRRRRCSRLP [F23P] | 2.6 |
| DEEERRRRVFDVPIRRRRCSRLW [F23W] | 3.56 |
| DEEERRRRVFDVPIRRRRCSRLC [F23C] | 2.65 |
| DEEERRRRVFDVPIRRRRCSRLK [F23K] | 4.1 |
| DEEERRRRVFDVPIRRRRCSRLY [F23Y] | 3.25 |
| DEEERRRRVFDVPIRRRRCSRLN [F23N] | 2.48 |
| DEEERRRRVFDVPIRRRRCSRLH [F23H] | 2.77 |
| DEEERRRRVFDVPIRRRRCSRLD [F23D] | 2.71 |
| DEEERRRRVFDVPIRRRRCSRLT [F23T] | 2.4 |
| DEEERRRRVFDVPIRRRRCSRLS [F23S] | 1.03 |
| DEEERRRRVFDVPIRRRRCSRLI [F23I] | 1.85 |
| DEEERRRRVFDVPIRRRRCSRLQ [F23Q] | 2.98 |
| DEEERRRRVFDVPIRRRRCSRLV [F23V] | 3.28 |

Variants of: B2
Experiment: as above
Conditions: c terminus: a fixed tail appended

| Variant | protein stability index |
| --- | --- |
| MAEISRIQYEMVYTEGISQRMRVP [E12V] | 1.76 |
| MAEISRIQYEMSYTEGISQRMRVP [E12S] | 2.42 |
| MAEISRIQYEMIYTEGISQRMRVP [E12I] | 1.28 |
| MAEISRIQYEMMYTEGISQRMRVP [E12M] | 1.84 |
| MAEISRIQYEMKYTEGISQRMRVP [E12K] | 2.64 |
| MAEIWRIQYEMEYTEGISQRMRVP [S5W] | 2.46 |
| MAEIMRIQYEMEYTEGISQRMRVP [S5M] | 1.34 |
| MAEIYRIQYEMEYTEGISQRMRVP [S5Y] | 1.6 |
| MAEIQRIQYEMEYTEGISQRMRVP [S5Q] | 2.36 |
| MAEISRISYEMEYTEGISQRMRVP [Q8S] | 2.71 |
| MAEISRILYEMEYTEGISQRMRVP [Q8L] | 1.6 |
| MAEISRINYEMEYTEGISQRMRVP [Q8N] | 2.85 |
| MAEISRIMYEMEYTEGISQRMRVP [Q8M] | 1.94 |
| MAEISRIVYEMEYTEGISQRMRVP [Q8V] | 1.45 |
| MAEISRIIYEMEYTEGISQRMRVP [Q8I] | 2.52 |
| MAEISRIRYEMEYTEGISQRMRVP [Q8R] | 2.21 |
| MAEISRIQYEMEYTEGISQRTRVP [M21T] | 3.33 |
| MAEISRIQYEMEYTEGISQRLRVP [M21L] | 2.26 |
| MAEISRIQYEMEYTEGISQRFRVP [M21F] | 2.38 |
| MAEISRIQYEMEYTEGISQRYRVP [M21Y] | 2.9 |
| MAEISRIQYEMEYTEGISQRARVP [M21A] | 3.17 |

| Variant | protein stability index |
| --- | --- |
| MAEISRIQYEMEYTEGISQRKRVP [M21K] | 3.73 |
| MAEISRIQYEMEYTEGISQRRRVP [M21R] | 3.9 |
| MAEISRIQYEMEYTEGISQRQRVP [M21Q] | 3.12 |
| MAEWSRIQYEMEYTEGISQRMRVP [I4W] | 2.89 |
| MAERSRIQYEMEYTEGISQRMRVP [I4R] | 3.31 |
| MAEPSRIQYEMEYTEGISQRMRVP [I4P] | 3.55 |
| MAELSRIQYEMEYTEGISQRMRVP [I4L] | 2.99 |
| MAECSRIQYEMEYTEGISQRMRVP [I4C] | 3.6 |
| MAEQSRIQYEMEYTEGISQRMRVP [I4Q] | 3.8 |
| MAEESRIQYEMEYTEGISQRMRVP [I4E] | 4.08 |
| MAEDSRIQYEMEYTEGISQRMRVP [I4D] | 3.41 |
| MAEMSRIQYEMEYTEGISQRMRVP [I4M] | 3.56 |
| MAEKSRIQYEMEYTEGISQRMRVP [I4K] | 3.58 |
| MAEISRIQYEMEYTEGISQRMRRP [V23R] | 2.73 |
| MAEISRIQYEMEYTEGISQRMRFP [V23F] | 1.99 |
| MAEISRIQYEMEYTEGISQRMRIP [V23I] | 2.07 |
| MAEISRIQYEMEYTEGISQRMRDP [V23D] | 3.23 |
| MAEISRIQYEMEYTEGISQRMRNP [V23N] | 2.61 |
| MAEISRIQYEMEYTEWISQRMRVP [G16W] | 2.04 |
| MAEISRIQYEMEYTEKISQRMRVP [G16K] | 2.71 |
| MAEISRIQYEMEYTEQISQRMRVP [G16Q] | 2.29 |

| Variant | protein stability index |
| --- | --- |
| MAEISRIQYEMEYTETISQRMRVP [G16T] | 2.22 |
| MAEISRIQYEMEYTEFISQRMRVP [G16F] | 1.82 |
| MAEISRIQYEMEYTECISQRMRVP [G16C] | 2.02 |
| MAEISRIQYEMEYTENISQRMRVP [G16N] | 2.72 |
| MAEISRIQYETEYTEGISQRMRVP [M11T] | 3.15 |
| MAEISRIQYEPEYTEGISQRMRVP [M11P] | 3.2 |
| MAEISRIQYEDEYTEGISQRMRVP [M11D] | 3.61 |
| MAEISRIQYEGEYTEGISQRMRVP [M11G] | 3.28 |
| MAEISRIQYEHEYTEGISQRMRVP [M11H] | 3.38 |
| MAEISRIQYEEEYTEGISQRMRVP [M11E] | 4.06 |
| MAEISRIQYEMEYTEGISQRMWVP [R22W] | 2.01 |
| MAEISRIQYEMEYTEGISQRMCVP [R22C] | 2.4 |
| MAEISRIQYEMEYTEGISQRMLVP [R22L] | 2.48 |
| MAEISRIQYEMEYTEGISQRMYVP [R22Y] | 2.23 |
| MAEISRIQYEMEYTEGISQRMAVP [R22A] | 2.63 |
| MAEISRIQIEMEYTEGISQRMRVP [Y9I] | 1.71 |
| MAEISRIQDEMEYTEGISQRMRVP [Y9D] | 3.85 |
| MAEISRIQGEMEYTEGISQRMRVP [Y9G] | 3.6 |
| MAEISRIQMEMEYTEGISQRMRVP [Y9M] | 2.42 |
| MAEISRIQTEMEYTEGISQRMRVP [Y9T] | 3.22 |
| MAEISRIQKEMEYTEGISQRMRVP [Y9K] | 2.95 |
